# Laboratory results from patent US20060211610A1 (IPSEN PHARMA S A S, published 2006).
# Non-standard residues stand in square brackets, D forms with d. Phe(3,4,5-F3) = N[C@@H](Cc1cc(F)c(F)c(F)c1)C(=O)O; Ac6c = NC1(C(=O)O)CCCCC1
# T1: Y1 receptor (human), P25929
# T1 chain: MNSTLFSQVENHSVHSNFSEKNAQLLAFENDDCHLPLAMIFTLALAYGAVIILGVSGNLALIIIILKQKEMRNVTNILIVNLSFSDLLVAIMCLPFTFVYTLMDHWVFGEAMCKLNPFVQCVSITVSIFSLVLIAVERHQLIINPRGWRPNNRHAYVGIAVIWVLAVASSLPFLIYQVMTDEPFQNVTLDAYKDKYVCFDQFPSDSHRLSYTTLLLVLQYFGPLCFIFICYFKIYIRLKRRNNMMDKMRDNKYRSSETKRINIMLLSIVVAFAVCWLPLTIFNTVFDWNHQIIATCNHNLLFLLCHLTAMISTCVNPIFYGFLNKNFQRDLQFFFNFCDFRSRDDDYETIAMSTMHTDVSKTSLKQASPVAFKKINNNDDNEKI
# T2: Y2 receptor (human), P49146
# T2 chain: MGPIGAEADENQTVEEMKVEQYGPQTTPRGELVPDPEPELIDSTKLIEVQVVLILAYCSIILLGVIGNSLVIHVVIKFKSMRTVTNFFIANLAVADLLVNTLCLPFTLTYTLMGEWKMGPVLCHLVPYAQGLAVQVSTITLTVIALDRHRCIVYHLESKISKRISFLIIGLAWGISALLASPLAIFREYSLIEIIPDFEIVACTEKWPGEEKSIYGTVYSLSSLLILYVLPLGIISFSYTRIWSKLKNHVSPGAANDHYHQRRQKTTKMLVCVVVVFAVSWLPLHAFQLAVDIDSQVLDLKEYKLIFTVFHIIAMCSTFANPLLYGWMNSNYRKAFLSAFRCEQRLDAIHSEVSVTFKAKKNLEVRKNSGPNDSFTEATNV
# T3: Y2 receptor (human, UniProt P49146 1-381)
# T3 construct: whole, on cells; Assayed as membrane homogenates of SK-N-BE2 cells, not intact cells
# T3 sequence (looked up): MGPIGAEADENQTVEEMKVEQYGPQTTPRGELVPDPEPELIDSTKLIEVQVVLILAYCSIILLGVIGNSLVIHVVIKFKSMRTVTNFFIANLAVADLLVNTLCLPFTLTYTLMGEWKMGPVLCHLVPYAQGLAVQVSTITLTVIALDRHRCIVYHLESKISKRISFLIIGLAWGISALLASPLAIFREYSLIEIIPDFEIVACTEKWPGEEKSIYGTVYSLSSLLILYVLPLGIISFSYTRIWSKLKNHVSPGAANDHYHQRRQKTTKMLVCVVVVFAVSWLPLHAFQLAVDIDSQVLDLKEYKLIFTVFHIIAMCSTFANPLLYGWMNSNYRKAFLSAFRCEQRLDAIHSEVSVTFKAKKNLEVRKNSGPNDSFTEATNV
# T4: Y1 receptor (human, UniProt P25929 1-384)
# T4 construct: whole, on cells; Assayed as membrane homogenates of SK-N-MC cells, not intact cells; also called NPY Y1
# T4 sequence (looked up): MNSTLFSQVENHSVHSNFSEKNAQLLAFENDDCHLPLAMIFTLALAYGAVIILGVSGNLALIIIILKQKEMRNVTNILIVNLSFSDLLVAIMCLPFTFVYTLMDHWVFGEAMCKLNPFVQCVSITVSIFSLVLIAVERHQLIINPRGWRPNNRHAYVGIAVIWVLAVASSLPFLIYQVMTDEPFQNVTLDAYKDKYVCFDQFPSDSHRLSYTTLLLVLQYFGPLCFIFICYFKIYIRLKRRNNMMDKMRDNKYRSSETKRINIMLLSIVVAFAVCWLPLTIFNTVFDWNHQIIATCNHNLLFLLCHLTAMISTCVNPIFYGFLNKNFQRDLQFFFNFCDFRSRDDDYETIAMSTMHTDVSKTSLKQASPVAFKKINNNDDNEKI
# Legend:
# [1] = target: T1, Y1 receptor (human), P25929
# [2] = target: T2, Y2 receptor (human), P49146
# Y2 receptor = target: T3, Y2 receptor; test: radioligand competition against [125I]PYY(3-36), SK-N-BE2 membranes, Cheng-Prusoff
# Protocol: (§1) The final pellets were resuspended in approximately 20 ml of 50 mM Tris-HCl containing 5.0 mM MgCl₂, 0.1 mg/ml bacitracin, and 0.1% BSA (Buffer B), and held on ice for the receptor binding assay.
# (§2) For assay, aliquots (0.4 ml) of the foregoing suspensions were incubated with 0.05 ml of 0.05 nM [¹²⁵I-Leu³¹, Pro³⁴]PYY (Y1 receptor) or [¹²⁵I]PYY(3-36) (Y2 receptor), (each ˜2200 Ci/mmol, New England Nuclear) in Buffer B, with or without 0.05 ml a solution (ranging from 0.01 nM -1000 nM) of an unlabeled competing peptide. After a 120 min incubation (25° C.), the bound radioligand was separated from the free by rapid filtration through GF/C filters, previously soaked in 0.3% polyethyleneimine. […] Inhibition constants (K₁,) were calculated using the well-known Cheng-Prusoff equation.
# Y1 receptor = target: T4, Y1 receptor; test: radioligand competition against [125I-Leu31,Pro34]PYY, SK-N-MC membranes, Cheng-Prusoff
# Protocol: as §1, §2
Binder,Ki [1] [µM],Ki [2] [µM],Ki (Y2 receptor) [µM],Ki (Y1 receptor) [µM]
"Ac-ASLRH[Phe(3,4,5-F3)]LNLVTRQRY-NH2 (SMILES CC(=O)N[C@@H](C)C(=O)N[C@@H](CO)C(=O)N[C@@H](CC(C)C)C(=O)N[C@@H](CCCNC(=N)N)C(=O)N[C@@H](Cc1c[nH]cn1)C(=O)N[C@@H](Cc1cc(F)c(F)c(F)c1)C(=O)N[C@@H](CC(C)C)C(=O)N[C@@H](CC(N)=O)C(=O)N[C@@H](CC(C)C)C(=O)N[C@H](C(=O)N[C@H](C(=O)N[C@@H](CCCNC(=N)N)C(=O)N[C@@H](CCC(N)=O)C(=O)N[C@@H](CCCNC(=N)N)C(=O)N[C@@H](Cc1ccc(O)cc1)C(N)=O)[C@@H](C)O)C(C)C) [Ac-[(3,4,5-F)Phe^27]hPYY(22-36)NH2]",< 2,< 1,,
"Ac-LRHY[Ac6c]NLLTRQRY-NH2 (SMILES CC(=O)N[C@@H](CC(C)C)C(=O)N[C@@H](CCCNC(=N)N)C(=O)N[C@@H](Cc1c[nH]cn1)C(=O)N[C@@H](Cc1ccc(O)cc1)C(=O)NC1(C(=O)N[C@@H](CC(N)=O)C(=O)N[C@@H](CC(C)C)C(=O)N[C@@H](CC(C)C)C(=O)N[C@H](C(=O)N[C@@H](CCCNC(=N)N)C(=O)N[C@@H](CCC(N)=O)C(=O)N[C@@H](CCCNC(=N)N)C(=O)N[C@@H](Cc2ccc(O)cc2)C(N)=O)[C@@H](C)O)CCCCC1, Also carries Leu at 31 (residue 8 of the peptide), already in the entry) [Ac-[A6C^28, Leu^31]hPYY(24-36)NH2]",,,< 1,< 2
"Ac-LRHYLNL[Ac6c]TRQRY-NH2 (SMILES CC(=O)N[C@@H](CC(C)C)C(=O)N[C@@H](CCCNC(=N)N)C(=O)N[C@@H](Cc1c[nH]cn1)C(=O)N[C@@H](Cc1ccc(O)cc1)C(=O)N[C@@H](CC(C)C)C(=O)N[C@@H](CC(N)=O)C(=O)N[C@@H](CC(C)C)C(=O)NC1(C(=O)N[C@H](C(=O)N[C@@H](CCCNC(=N)N)C(=O)N[C@@H](CCC(N)=O)C(=O)N[C@@H](CCCNC(=N)N)C(=O)N[C@@H](Cc2ccc(O)cc2)C(N)=O)[C@@H](C)O)CCCCC1, Synthetic analog of human PYY(24-36)) [Ac-[A6C^31]hPYY(24-36)NH2]",,,< 1,< 2
